In patent US9156883B2, “Binding molecules for human factor VIII and factor VIII-like proteins” (DYAX CORP., priority 1999, dated 2015):
No end group written: not given here.

Columns and labels:
[1] = molecular target: T1, factor VIII target (Homo sapiens, UniProt P00451); assay: Phage ELISA of high scoring isolates from rounds 2 and 3, with versus without target; format: binding; details: phage isolates from rounds 2 and 3
T1 construct: amino acids 1-743 and 1638 through 2332 of human factor VIII; purchased Genetics Institute, Inc. (Cambridge, Mass.)
T1 sequence (P00451 20-762): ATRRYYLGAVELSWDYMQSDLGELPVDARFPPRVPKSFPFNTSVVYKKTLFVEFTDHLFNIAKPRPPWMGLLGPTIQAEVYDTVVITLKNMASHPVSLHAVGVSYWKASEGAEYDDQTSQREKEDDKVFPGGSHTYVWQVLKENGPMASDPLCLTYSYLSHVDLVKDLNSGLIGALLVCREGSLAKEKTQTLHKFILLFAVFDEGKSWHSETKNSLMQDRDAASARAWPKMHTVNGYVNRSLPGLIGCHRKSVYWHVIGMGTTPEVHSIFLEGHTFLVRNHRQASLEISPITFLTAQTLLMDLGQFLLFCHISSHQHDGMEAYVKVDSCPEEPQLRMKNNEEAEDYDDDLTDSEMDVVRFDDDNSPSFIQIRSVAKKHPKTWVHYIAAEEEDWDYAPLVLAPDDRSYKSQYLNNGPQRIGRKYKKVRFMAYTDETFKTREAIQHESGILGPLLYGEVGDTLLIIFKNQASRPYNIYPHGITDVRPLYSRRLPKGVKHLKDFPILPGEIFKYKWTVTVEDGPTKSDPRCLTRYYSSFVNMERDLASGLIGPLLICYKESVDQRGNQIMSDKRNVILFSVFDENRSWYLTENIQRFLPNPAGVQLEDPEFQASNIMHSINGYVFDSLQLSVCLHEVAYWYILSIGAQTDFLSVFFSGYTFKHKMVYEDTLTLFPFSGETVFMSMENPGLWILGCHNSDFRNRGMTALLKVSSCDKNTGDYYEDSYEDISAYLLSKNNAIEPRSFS
T1 sequence (P00451 1657-2351): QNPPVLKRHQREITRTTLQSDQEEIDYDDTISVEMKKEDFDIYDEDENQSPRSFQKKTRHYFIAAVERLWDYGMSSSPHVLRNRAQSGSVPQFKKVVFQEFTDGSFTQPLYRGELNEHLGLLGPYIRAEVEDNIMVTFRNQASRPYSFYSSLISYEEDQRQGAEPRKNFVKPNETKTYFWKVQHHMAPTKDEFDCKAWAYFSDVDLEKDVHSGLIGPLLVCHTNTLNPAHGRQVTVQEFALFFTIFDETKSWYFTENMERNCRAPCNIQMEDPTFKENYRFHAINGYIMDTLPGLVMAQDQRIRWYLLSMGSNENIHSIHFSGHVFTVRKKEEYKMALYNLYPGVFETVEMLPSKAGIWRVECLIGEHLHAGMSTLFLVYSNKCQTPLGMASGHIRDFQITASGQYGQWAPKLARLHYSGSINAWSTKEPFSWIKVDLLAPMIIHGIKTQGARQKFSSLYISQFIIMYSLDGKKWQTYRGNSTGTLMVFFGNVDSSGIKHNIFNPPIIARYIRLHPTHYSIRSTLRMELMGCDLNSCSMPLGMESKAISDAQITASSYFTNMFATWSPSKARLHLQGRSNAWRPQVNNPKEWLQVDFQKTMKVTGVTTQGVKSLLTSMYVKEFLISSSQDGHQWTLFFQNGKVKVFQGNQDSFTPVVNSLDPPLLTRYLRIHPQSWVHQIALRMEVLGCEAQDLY
Description: During analysis of the specific polypeptides of the invention, three libraries were isolated and screened. […] These libraries were designated TN7/1, TN8/6 anf TN9/1. In addition, important consensus sequences were determined.
Three rounds of screenings were carried out for each library. At the conclusion of the third round of screening eluted phage were propagated, and individual isolates from each library (96 per elution condition) were selected randomly and tested by standard ELISA techniques for binding to the factor VIII target. Bound phage were detected with HRP conjugated anti-M13 polyclonal antibody (Pharmacia). TMB Peroxidase substrate was used for HRP in the ELISA detection mechanism. TMB substrate produces a blue color after peroxidase digestion. The color is quantitated by absorbance at OD630. Phage isolates that provided a significant signal (OD630>0.25) above background were considered positive clones. […]

[2] = molecular target: T2, REFACTO® (factor VIII-like polypeptide, amino acids 1-743 and 1638 through 2332 of human factor VIII) (Homo sapiens, UniProt P00451); assay: Phage ELISA of third-round isolates for binding to the factor VIII target; details: HRP anti-M13, TMB, absorbance at OD630
T2 construct: amino acids 1-743 and 1638 through 2332 of human factor VIII; purchased Genetics Institute, Inc. (Cambridge, Mass.)
T2 sequence (P00451 20-762): T1 sequence (P00451 20-762)
T2 sequence (P00451 1657-2351): T1 sequence (P00451 1657-2351)
Source text: The techniques described above were employed to isolate high affinity binding molecules for ligands for recombinantly produced factor VIII-like polypeptide consisting of two segments of human factor VIII, i.e., amino acids 1-743 and 1638 through 2332 of human factor VIII, as described in U.S. Pat. No. 5,661,008 (Almstedt et al.), obtained under the commercial designation of REFACTO® from Genetics Institute, Inc. (Cambridge, Mass.). The REFACTO® target was provided at a concentration of about 530 μg/ml (7800 IU/ml) in 19.4 mM His, 300 mM NaCl, 3.4 mM CaCl2 and 0.1% Tween 80, pH 7.0.
Three libraries, designated TN7 (5×10^9 amino acid sequence diversity), TN8 (6×10^9 amino acid sequence diversity), and TN9 (5×10^9 amino acid sequence diversity), were constructed for expression of diversified polypeptides on M13 phage. Each library was screened for binders to purified REFACTO®. Each of the libraries was constructed to display a microprotein based on an 11- or 12-amino acid template. The TN7 library utilized a template sequence of Xaa-Xaa-Cys-Xaa-Xaa-Xaa-Xaa-Xaa-Cys-Xaa-Xaa; the TN8 library utilized a template sequence of Xaa-Xaa-Cys-Xaa-Xaa-Xaa-Xaa-Xaa-Xaa-Cys-Xaa-Xaa; the TN9 library utilized a template sequence of Xaa-Cys-Xaa-Xaa-Xaa-Xaa-Xaa-Xaa-Xaa-Cys-Xaa.
Three rounds of screenings were carried out for each library. At the conclusion of the third round of screening eluted phage were propagated, and individual isolates from each library (96 per elution condition) were selected randomly and tested by standard ELISA techniques for binding to the factor VIII target. Bound phage were detected with HRP conjugated anti-M13 polyclonal antibody (Pharmacia). TMB Peroxidase substrate was used for HRP in the ELISA detection mechanism. TMB substrate produces a blue color after peroxidase digestion. The color is quantitated by absorbance at OD630. Phage isolates that provided a significant signal (OD630>0.25) above background were considered positive clones.
Sequence data from the phage isolates were grouped by library and sorted according to the degree of similarity. The frequency at which any given sequence was obtained was noted since this indicates selection for a specific binder.

| Substance | R, ratio of the ELISA score with target present to the ELISA score without target [1] | further results |
| --- | --- | --- |
| FCWVFNFSHCS (cysteine pairing not given here) [TN9 isolate 03] | 24 |  |
| 06 (FCWVFPFHHCF; Selected Phage Display Sequence) [compound 06] |  | ELISA signal ([2]; TN9 library phage isolates): 0.3 |
| FGCSWLFPCPF (cysteine pairing not given here) [TN7 isolate A08] | 8 |  |
| FCWVFQFRHCH (Selected Phage Display Sequence) [Phe-Cys-Trp-Val-Phe-Q-Phe-Arg-His-Cys-His] | 8 |  |
| HSCGSWLFPCFA (cysteine pairing not given here) [TN7 isolate A06] | 10 |  |
| HLCFAWFRPCDA (cysteine pairing not given here) [TN8 isolate 12] | 8 |  |
| FCWVFPFQHCA (cysteine pairing not given here) [TN9 isolate 09] | 24 |  |
| 03 (FCWVFNFSHCS; Selected Phage Display Sequence) [compound 03] |  | ELISA signal ([2]; TN9 library phage isolates): 1.1 |
| D04 (RLCSWISPCSA; Selected Phage Display Sequence) |  | ELISA signal ([2]; TN7 library phage isolates): 0.3 |
| A09 (FHCIGVWFCLH; Selected Phage Display Sequence) |  | ELISA signal ([2]; TN7 library phage isolates): 0.1 |
| 07 (HACGSWFRPCHA; Selected Phage Display Sequence) [compound 07] |  | ELISA signal ([2]; TN8 library phage isolates): 0.4 |
| HPCGSWLRPCLH (cysteine pairing not given here) [TN8 isolate 10] | 16 |  |
| FCHVFNFVHCS (cysteine pairing not given here) [TN9 isolate 01] | 8 |  |
| 08 (HPCGAWLRPCYN; Selected Phage Display Sequence) [compound 08] |  | ELISA signal ([2]; TN8 library phage isolates): 1.0 |
| 09 (FCWVFPFQHCA; Selected Phage Display Sequence) [compound 09] |  | ELISA signal ([2]; TN9 library phage isolates): 1.1 |
| HRCGSWLHPCLA (cysteine pairing not given here) [TN8 isolate 11/G10] | 6 |  |
| D03 (PHCNWLFPCSL; Selected Phage Display Sequence) |  | ELISA signal ([2]; TN7 library phage isolates): 0.2 |
| FCWVFNWVHCD (Selected Phage Display Sequence) [Phe-Cys-Trp-Val-Phe-Asn-Trp-Val-His-Cys-Asp] | 14 |  |
| HLCGAWFRPCDA (cysteine pairing not given here) [TN8 isolate 02] | 6 |  |

| Substance | R, ratio of the ELISA score with target present to the ELISA score without target [1] | further results |
| --- | --- | --- |
| 11/G10 (HRCGSWLHPCLA; Selected Phage Display Sequence) |  | ELISA signal ([2]; TN8 library phage isolates): 0.3 |
| 05 (RGCGSWLRPCLD; Selected Phage Display Sequence) [compound 05] |  | ELISA signal ([2]; TN8 library phage isolates): 0.2 |
| FCWVFAFDHCH (Selected Phage Display Sequence) [Phe-Cys-Trp-Val-Phe-Ala-Phe-Asp-His-Cys-His] | 24 |  |
| HACGSWFRPCHA (cysteine pairing not given here) [TN8 isolate 07] | 6 |  |
| FCWVFPFHHCF (cysteine pairing not given here) [TN9 isolate 06] | 6 |  |
| HPCGSWLHPCAA (cysteine pairing not given here) [TN8 isolate 04] | 6 |  |
| RLCSWVSPCSA (cysteine pairing not given here) [TN7 isolate C5/G10] | 10 |  |
| A08 (FGCSWLFPCPF; Selected Phage Display Sequence) |  | ELISA signal ([2]; TN7 library phage isolates): 0.4 |
| 10 (HPCGSWLRPCLH; Selected Phage Display Sequence) [compound 10] |  | ELISA signal ([2]; TN8 library phage isolates): 1.0 |
| A06 (HSCGSWLFPCFA; Selected Phage Display Sequence) |  | ELISA signal ([2]; TN7 library phage isolates): 0.5 |
| C5/G10 (RLCSWVSPCSA; Selected Phage Display Sequence) |  | ELISA signal ([2]; TN7 library phage isolates): 0.5 |
| FCWVFPFNHCD (cysteine pairing not given here) [TN9 isolate 02] | 8 |  |
| HPCGAWLRPCYN (cysteine pairing not given here) [TN8 isolate 08] | 20 |  |
| HPCGSWFNPCAH (cysteine pairing not given here) [TN8 isolate 02] | 8 |  |
| FCWVFPFNHCS (cysteine pairing not given here) [TN9 isolate 12] | 18 |  |
| 11 (FCHVFPFLHCD; Selected Phage Display Sequence) [compound 11] |  | ELISA signal ([2]; TN9 library phage isolates): 0.2 |
| HPCGSWFRPCFH (cysteine pairing not given here) [TN8 isolate 02] | 16 |  |
| RLCSWISPCSA (cysteine pairing not given here) [TN7 isolate D04] | 6 |  |
